B4: His6-AfBax1 (Archaeoglobus fulgidus Bax1) (enzyme)
chain: MLPKELLDVRRAKGRIFPKFADERDYELAEKVIEIFKKGLGKKYGNLMKQARKLENAKNFKKVRGFIRVLENHCIEKSCAFDVDSELEPRKVRMLLFEHGFVTSKKERDRVLEYVARYFSTTPETVERAMYADREEELILTKFRPLTPDNLIKLYNLSLLQTTLFNALRLTFWASDRHKEIFRSIKRLGLMYELYEDSGRLMVEVTGAATLLKMTRKYGVSFAKLIPWILRAKNWFIRAEISDFDRLYIMEIDDRIRDLFPDVEERLSYDSTLEEEFARKMQMLGYEVEREPDVVKAGKYAFIPDFAVNLGDKKVYIEIAGFWTDEYLRKKAEKIKSSSIPLILIAREDFGDGGANVKDVILFSRKIPYGEVIKALKRYKPEKKVEGDVVELENFAEVPSEYVIAGKYAVRREIFEEIKREIEVSNPSTLEDIKAILKKYGLGESAIRAFGYRVRWIGLGEAVIERTD
notes: residues 1-467 are seen in the crystal of the untagged form; Used in ITC as His6-AfBax1; also called wild type AfBax1; source: E. coli Rosetta, from pET-28b, purified in the same way as His6-AfXPB

The target of data set [1] is StBax1 mutant L89A/F90A/P94S/V95S (Sulfolobus tokodaii) (UniProt Q970I1). Briefly: ITC; His6-StXPB (30 uM) injected into His6-StBax1 (3 uM); 16 injections of 2.36 ul; 40 C; 10 mM Tris-Cl pH 7.5, 200 mM NaCl, 5% glycerol, 0.01% sodium azide; single binding site fit; similar procedures for mutants. Background: ITC needs no label: the signal is the heat of the interaction.

The target in data set [2] is B4. Briefly: ITC; His6-AfXPB (139.5 uM) or His6-AfXPB-CTD (202 uM) injected into His6-AfBax1 (13.3 uM); 16 injections of 2.36 ul; 40 C; 10 mM Tris-Cl pH 7.5, 500 mM NaCl, 5% glycerol, 0.01% sodium azide; single binding site fit; similar procedures for mutants. As to conditions: both partners purified.
For data set [3], the target named is T1, AfBax1 mutant D133A/E135A (Archaeoglobus fulgidus, UniProt O29890 1-468, D133A | E135A).
T1 construct: Expression and purification of the mutants are not described; also called AfBax1 with substitutions D133A/E135A
T1 sequence: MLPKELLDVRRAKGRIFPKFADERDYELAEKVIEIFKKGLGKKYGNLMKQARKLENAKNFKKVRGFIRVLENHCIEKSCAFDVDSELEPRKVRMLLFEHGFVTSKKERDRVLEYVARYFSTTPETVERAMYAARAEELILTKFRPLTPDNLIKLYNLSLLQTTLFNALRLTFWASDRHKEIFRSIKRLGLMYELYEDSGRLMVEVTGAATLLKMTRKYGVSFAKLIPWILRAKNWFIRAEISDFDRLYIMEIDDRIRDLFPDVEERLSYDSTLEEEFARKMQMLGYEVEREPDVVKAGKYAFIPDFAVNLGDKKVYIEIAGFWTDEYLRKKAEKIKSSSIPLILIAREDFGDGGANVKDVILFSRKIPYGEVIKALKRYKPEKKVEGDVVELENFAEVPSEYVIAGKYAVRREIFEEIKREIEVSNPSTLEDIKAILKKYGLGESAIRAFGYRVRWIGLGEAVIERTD
The data set is described as above. Conditions: both partners purified.

For the next data set, the target named is T2, StBax1 mutant R86A/R87A (Sulfolobus tokodaii, UniProt Q970I1 1-481, R86A | R87A).
T2 construct: Expression and purification of the mutants are not described
T2 sequence: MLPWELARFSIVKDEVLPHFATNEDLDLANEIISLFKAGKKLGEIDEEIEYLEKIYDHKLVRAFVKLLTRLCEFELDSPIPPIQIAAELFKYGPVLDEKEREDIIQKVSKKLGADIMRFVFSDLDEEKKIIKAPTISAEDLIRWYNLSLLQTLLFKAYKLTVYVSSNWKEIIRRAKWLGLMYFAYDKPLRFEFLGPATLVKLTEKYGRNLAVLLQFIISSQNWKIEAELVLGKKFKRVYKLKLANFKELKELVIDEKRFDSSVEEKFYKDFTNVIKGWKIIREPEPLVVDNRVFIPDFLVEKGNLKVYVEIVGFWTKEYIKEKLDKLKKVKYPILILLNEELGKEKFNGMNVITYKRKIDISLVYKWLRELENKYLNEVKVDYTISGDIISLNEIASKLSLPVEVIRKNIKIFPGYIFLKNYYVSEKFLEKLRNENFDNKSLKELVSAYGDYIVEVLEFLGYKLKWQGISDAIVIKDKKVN
Description: ITC; His6-StXPB (30 uM) injected into His6-StBax1 (3 uM); 16 injections of 2.36 ul; 40 C; 10 mM Tris-Cl pH 7.5, 200 mM NaCl, 5% glycerol, 0.01% sodium azide; single binding site fit; similar procedures for mutants. As to conditions: both partners purified.

Data set [4] concerns the molecule itself. Description: SEC; S200 size-exclusion chromatography of the proteins alone and mixed; calibrated with Conalbumin (75 kDa), Ovalbumin (44 kDa) and Lactalbumin (14 kDa). For orientation: In gel filtration, larger molecules generally elute earlier.

Consider “His6-StXPB (Sulfolobus tokodaii XPB, XPBII) (from UniProt Q970I2 1-439) (enzyme)”, for which the stoichiometry N – broadly, a count of units in the complex or per binding partner – in data set [1] is 1.

B1: His6-AfXPB (Archaeoglobus fulgidus XPB) (enzyme, UniProt O29889 1-452, looked up)
chain: MQMIAEIYYERGTIVVKGDAHVPHAKFDSRSGTYRALAFRYRDIIEYFESNGIEFVDNAADPIPTPYFDAEISLRDYQEKALERWLVDKRGCIVLPTGSGKTHVAMAAINELSTPTLIVVPTLALAEQWKERLGIFGEEYVGEFSGRIKELKPLTVSTYDSAYVNAEKLGNRFMLLIFDEVHHLPAESYVQIAQMSIAPFRLGLTATFEREDGRHEILKEVVGGKVFELFPDSLAGKHLAKYTIKRIFVPLAEDERVEYEKREKVYKQFLRARGITLRRAEDFNKIVMASGYDERAYEALRAWEEARRIAFNSKNKIRKLREILERHRKDKIIIFTRHNELVYRISKVFLIPAITHRTSREEREEILEGFRTGRFRAIVSSQVLDEGIDVPDANVGVIMSGSGSAREYIQRLGRILRPSKGKKEAVLYELISRGTGEVNTARRRKNAAKGAA
notes: residues 1-445 and 17 residues of the N-terminal His6 tag are seen in the crystal; also called full length AfXPB; source: E. coli Rosetta (DE3) pLysS, purified (heat step, HisTrap, HiTrap SP, Sephacryl S-200); not shown: His6, N-terminal, kept
B1: in data set [2], the affinity, expressed as Kd, was 15.2 nM and the “stoichiometry N” value came out at 1. Moreover, in data set [3], the Kd – broadly, the constant that tells how readily two partners part at equilibrium – was 157 nM and the “stoichiometry N” value came to 1.

B2: StXPB mutant E357A/E360A (enzyme, Sulfolobus tokodaii)
chain: MVYLRYFKGLILSDAYAPGLKWSDELKAYSALAFKYRDVRKYFLEKEIEVEENVIDSLPFPLIKDKIELRDYQAEAVKAWLKEKRGIIVLPTGAGKTQVALKIVSIMKVATLIVVPTIDLITQWKERINKYLDFDPGIIGGGEDSLKGITVITYDSAYTRAEELGNKFPLLIFDEVHHLPSEGYSIMAQLFASPYRLGLTATPERDDGKHELYPILVGPIVYRKSVEELAGKYIAKYKIKKLYVSLTNEEKKRYDGLRKKLKDFLSSRGLKLQNLDDFHRLVKLAAKDKEAREALLAWHESLNIAVNSQSKIEKLREILQEYKNEKIIVFTRDTQMAYRISKTFLIPVVTYKTDKDAREAILQKFRDGEYRVIVASTVFDEGVDVPDATLAIVMGGYGTKRQFLQRLGRILRKKDKEALLIEIVTKGTADYRLSRRRRE
notes: Expression and purification of the mutants are not described
Consider B2, for which, in the data set with StBax1 mutant R86A/R87A, binding was put at a Kd of 64.9 nM and the “stoichiometry N” value worked out at 1.

B3: His6-AfXPB C-terminal half (residues 234-452) (domain or fragment, Archaeoglobus fulgidus, UniProt O29889 234-452, looked up)
chain: LAGKHLAKYTIKRIFVPLAEDERVEYEKREKVYKQFLRARGITLRRAEDFNKIVMASGYDERAYEALRAWEEARRIAFNSKNKIRKLREILERHRKDKIIIFTRHNELVYRISKVFLIPAITHRTSREEREEILEGFRTGRFRAIVSSQVLDEGIDVPDANVGVIMSGSGSAREYIQRLGRILRPSKGKKEAVLYELISRGTGEVNTARRRKNAAKGAA
notes: also called AfXPB-CTD; His6-AfXPB-CTD; source: purified
Take B3: in data set [2], binding was characterised by a dissociation constant (Kd) of 0.5 nM and the “stoichiometry N” value amounted to 1.

Turning to B4, the “stoichiometry N” value in data set [4] is 2.

B5: His6-StBax1 (Sulfolobus tokodaii Bax1) (enzyme, UniProt Q970I1 1-481, looked up)
chain: MLPWELARFSIVKDEVLPHFATNEDLDLANEIISLFKAGKKLGEIDEEIEYLEKIYDHKLVRAFVKLLTRLCEFELDSPIPPIQIRRELFKYGPVLDEKEREDIIQKVSKKLGADIMRFVFSDLDEEKKIIKAPTISAEDLIRWYNLSLLQTLLFKAYKLTVYVSSNWKEIIRRAKWLGLMYFAYDKPLRFEFLGPATLVKLTEKYGRNLAVLLQFIISSQNWKIEAELVLGKKFKRVYKLKLANFKELKELVIDEKRFDSSVEEKFYKDFTNVIKGWKIIREPEPLVVDNRVFIPDFLVEKGNLKVYVEIVGFWTKEYIKEKLDKLKKVKYPILILLNEELGKEKFNGMNVITYKRKIDISLVYKWLRELENKYLNEVKVDYTISGDIISLNEIASKLSLPVEVIRKNIKIFPGYIFLKNYYVSEKFLEKLRNENFDNKSLKELVSAYGDYIVEVLEFLGYKLKWQGISDAIVIKDKKVN
notes: Homodimer when alone in solution (size-exclusion chromatography); one copy in the heterodimer with StXPB; source: E. coli Rosetta (DE3) pLysS, from pET15b, purified (heat step, ammonium sulfate, HisTrap, gel filtration)
On to B5, for which the “stoichiometry N” value in data set [4] is 2.

The record behind these values is publication PMC7293015 (Nucleic Acids Research, 2020).
